Holding throughout (experiment): cell-based or functional assay
Assay [1] addresses T1, human GIP receptor (human) (UniProt P48546).
T1 sequence (looked up): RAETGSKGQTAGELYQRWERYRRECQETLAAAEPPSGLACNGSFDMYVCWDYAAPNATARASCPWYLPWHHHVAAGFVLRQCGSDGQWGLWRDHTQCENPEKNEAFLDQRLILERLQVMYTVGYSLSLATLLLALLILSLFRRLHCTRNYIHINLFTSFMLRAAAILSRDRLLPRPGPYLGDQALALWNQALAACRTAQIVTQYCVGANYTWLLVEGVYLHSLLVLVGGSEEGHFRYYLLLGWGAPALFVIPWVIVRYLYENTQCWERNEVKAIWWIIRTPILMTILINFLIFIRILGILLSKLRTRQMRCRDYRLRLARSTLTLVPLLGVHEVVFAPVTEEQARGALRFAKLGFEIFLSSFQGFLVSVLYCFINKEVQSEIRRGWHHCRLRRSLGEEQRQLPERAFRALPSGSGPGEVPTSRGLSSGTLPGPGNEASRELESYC

Assay [2] deals with human GLP-1 receptor (human) (UniProt P43220).
The target of assay [3] is human glucagon receptor (human) (UniProt P47871).
Assay [4] has as its target T2, mouse GIP receptor (mouse) (UniProt Q0P543).
T2 sequence (looked up): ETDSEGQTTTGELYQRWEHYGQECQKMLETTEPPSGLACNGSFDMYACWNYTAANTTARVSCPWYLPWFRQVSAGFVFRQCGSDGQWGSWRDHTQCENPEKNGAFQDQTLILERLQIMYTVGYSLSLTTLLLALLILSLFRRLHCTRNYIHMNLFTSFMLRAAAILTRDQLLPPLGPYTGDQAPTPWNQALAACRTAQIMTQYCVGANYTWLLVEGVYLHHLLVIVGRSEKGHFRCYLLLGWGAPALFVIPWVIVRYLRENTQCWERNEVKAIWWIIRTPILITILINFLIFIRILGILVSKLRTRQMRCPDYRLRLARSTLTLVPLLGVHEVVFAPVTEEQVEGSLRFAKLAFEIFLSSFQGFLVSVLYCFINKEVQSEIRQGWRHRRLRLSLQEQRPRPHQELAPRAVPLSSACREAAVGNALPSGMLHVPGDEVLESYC

The target of assay [5] is mouse GLP-1 receptor (mouse) (UniProt O35659).
The next assay concerns the target T3, rat GIP receptor (rat) (UniProt P43219).
T3 sequence (looked up): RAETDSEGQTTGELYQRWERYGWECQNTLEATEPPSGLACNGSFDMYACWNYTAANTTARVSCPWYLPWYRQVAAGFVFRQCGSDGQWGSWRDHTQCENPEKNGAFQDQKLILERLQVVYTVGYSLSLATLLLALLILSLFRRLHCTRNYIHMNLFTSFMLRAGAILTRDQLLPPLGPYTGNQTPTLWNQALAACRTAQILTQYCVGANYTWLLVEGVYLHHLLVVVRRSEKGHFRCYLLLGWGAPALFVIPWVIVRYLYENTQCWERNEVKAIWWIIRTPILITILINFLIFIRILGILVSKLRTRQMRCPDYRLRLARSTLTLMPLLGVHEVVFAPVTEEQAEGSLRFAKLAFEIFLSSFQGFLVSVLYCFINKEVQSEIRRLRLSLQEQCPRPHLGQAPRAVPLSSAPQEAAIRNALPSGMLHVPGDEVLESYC

The next assay has as its target rat GLP-1 receptor (rat) (UniProt P32301).

“And” between values parts separate entries of the source, which are not always exact repeats. Equal entries are not always repeated.

rat GLP-1 receptor (rat), sequence (P32301 22-463): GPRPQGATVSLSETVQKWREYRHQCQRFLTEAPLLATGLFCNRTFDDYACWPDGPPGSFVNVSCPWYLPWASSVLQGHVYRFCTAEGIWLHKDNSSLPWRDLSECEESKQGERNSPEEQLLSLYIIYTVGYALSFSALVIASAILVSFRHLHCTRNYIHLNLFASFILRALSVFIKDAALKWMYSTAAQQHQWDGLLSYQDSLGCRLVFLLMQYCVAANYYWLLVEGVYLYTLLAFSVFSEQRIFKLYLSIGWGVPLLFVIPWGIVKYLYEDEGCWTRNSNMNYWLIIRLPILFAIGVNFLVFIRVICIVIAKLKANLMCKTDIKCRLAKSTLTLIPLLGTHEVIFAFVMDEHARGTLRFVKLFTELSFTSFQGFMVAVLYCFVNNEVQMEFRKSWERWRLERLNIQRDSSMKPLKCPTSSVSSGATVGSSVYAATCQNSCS
mouse GLP-1 receptor (mouse), sequence (O35659 22-463): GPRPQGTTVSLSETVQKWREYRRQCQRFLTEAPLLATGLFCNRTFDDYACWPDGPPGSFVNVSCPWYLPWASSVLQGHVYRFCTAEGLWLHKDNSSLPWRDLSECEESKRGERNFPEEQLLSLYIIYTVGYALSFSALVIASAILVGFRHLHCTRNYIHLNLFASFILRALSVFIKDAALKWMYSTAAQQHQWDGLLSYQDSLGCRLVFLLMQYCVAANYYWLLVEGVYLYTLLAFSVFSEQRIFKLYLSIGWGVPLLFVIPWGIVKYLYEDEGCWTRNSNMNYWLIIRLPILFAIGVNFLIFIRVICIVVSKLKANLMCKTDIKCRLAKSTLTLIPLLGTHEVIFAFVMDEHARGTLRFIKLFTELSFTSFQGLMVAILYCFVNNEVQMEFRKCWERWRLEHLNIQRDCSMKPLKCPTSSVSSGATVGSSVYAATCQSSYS
human glucagon receptor (human), sequence (P47871 26-477): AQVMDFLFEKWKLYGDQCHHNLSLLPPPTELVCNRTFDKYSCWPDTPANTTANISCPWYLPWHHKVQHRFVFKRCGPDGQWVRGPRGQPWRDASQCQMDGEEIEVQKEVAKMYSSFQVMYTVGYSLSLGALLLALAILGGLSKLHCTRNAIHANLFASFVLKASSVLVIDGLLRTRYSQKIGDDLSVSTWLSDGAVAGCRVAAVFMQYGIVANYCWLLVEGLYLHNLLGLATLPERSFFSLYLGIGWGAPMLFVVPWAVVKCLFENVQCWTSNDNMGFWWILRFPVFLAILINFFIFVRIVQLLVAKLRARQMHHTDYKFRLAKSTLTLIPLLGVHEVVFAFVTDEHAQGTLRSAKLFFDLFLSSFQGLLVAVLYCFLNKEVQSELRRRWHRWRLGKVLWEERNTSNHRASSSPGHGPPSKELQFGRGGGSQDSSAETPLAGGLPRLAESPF
human GLP-1 receptor (human), sequence (P43220 24-463): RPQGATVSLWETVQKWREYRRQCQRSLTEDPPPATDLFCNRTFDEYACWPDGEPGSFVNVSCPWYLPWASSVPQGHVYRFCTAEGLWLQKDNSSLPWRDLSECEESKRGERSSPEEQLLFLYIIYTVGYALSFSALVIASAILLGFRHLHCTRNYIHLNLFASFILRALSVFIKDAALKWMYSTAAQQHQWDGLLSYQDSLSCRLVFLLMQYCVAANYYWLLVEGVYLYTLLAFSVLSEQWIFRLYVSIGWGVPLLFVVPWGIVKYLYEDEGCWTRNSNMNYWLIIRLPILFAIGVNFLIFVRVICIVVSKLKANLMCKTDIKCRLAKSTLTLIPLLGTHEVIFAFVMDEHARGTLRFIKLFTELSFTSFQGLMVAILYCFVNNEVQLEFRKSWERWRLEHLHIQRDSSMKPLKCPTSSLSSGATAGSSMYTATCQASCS

B1: IP364 (Fc fusion)
chain: YSEGTFTSDFSKLLERQAIDEFIAWLLKGGAAAGGSGSTASSGSGSATGGGGAATHTCPPC
B1: the cAMP EC50 in assay [1] worked out at 0.0085 nM; in assay [2] it was 0.18 nM; in assay [3] it was 610 nM; in assay [4], 0.5 nM; in assay [5] it was 0.69 nM; with rat GIP receptor (rat) it was 0.02 nM. The molecule also gave a cAMP EC50 in the assay with rat GLP-1 receptor (rat) of 0.058 nM.

B2: IP366 (Fc fusion)
chain: YSEGTFTSDYRMLKERQAIDEFIAWLLKGGAAAGGSGSTASSGSGSATGGGGAATHTCPPC
B2: the cAMP EC50 was 0.14 nM in assay [1]; 6.1 nM in assay [2]; greater than 10200 nM in assay [3]; 0.056 nM in assay [4]; 100 nM in assay [5]; 0.016 nM in the assay with rat GIP receptor (rat). The same molecule showed a cAMP EC50 in the assay with rat GLP-1 receptor (rat) of 14 nM.

B3: IP330 (Fc fusion)
chain: YSEGTFTSDYSKLLERQAIDEFIALLLKGGGGGGGSGGGGSGGGGSGGGGSGGGGSGGGGSA
Turning to B3, the cAMP EC50 in assay [1] was found to be 0.009 nM; in assay [2], 0.66 nM; in assay [3] it was 1100 nM; in assay [4], 0.45 nM; in assay [5] it was 5.5 nM; in the assay with rat GIP receptor (rat), 0.023 nM. In addition, in the assay with rat GLP-1 receptor (rat), the cAMP EC50 was 0.089 nM.

B4: IP346 (Fc fusion)
chain: YSEGTFTSDYSKLLERQAIDEFIAFLLKGGGGGGGSGGGGSGGGGSGGGGSGGGGSGGGGSA
For B4, the cAMP EC50 in assay [1] was 0.011 nM; in assay [2], 0.08 nM; in assay [3], 180 nM; in assay [4] it was 0.16 nM; in assay [5] it was 0.29 nM; in the assay with rat GIP receptor (rat), 0.01 nM. Besides, the cAMP EC50 in the assay with rat GLP-1 receptor (rat) came out at 0.017 nM. In assay [1], this molecule came in with a cAMP EC50, hGIPr (C3) line of 0.16 nM.

B5: IP352 (Fc fusion)
chain: YSEGTFTSDYSKLLERQAIDEFIAMLLKGEGGGGGSGGGGSGGGGSGGGGSGGGGSGGGGSA
Consider B5, for which the cAMP EC50 was determined as 0.0069 nM in assay [1]; 0.13 nM in assay [2]; 620 nM in assay [3]; 0.52 nM in assay [4]; 3.6 nM in assay [5]; 0.0089 nM in the assay with rat GIP receptor (rat). The cAMP EC50 with rat GLP-1 receptor (rat) is 0.0076 nM.

B6: IP348 (Fc fusion)
chain: YSEGTFTSDYSKLLERQAIDEFIASLLKGGGGGGGSGGGGSGGGGSGGGGSGGGGSGGGGSA
With B6, the cAMP EC50 in assay [1] is 0.011 nM; in assay [2], 0.29 nM; in assay [3], greater than 907 nM; in assay [4], 1.4 nM; in assay [5] it was 0.89 nM; with rat GIP receptor (rat), 0.024 nM. The molecule further gave a cAMP EC50 with rat GLP-1 receptor (rat) of 0.037 nM.

B7: IP350 (Fc fusion)
chain: YSEGTFTSDYSKLLERQAIDEFIAGLLKGGGGGGGSGGGGSGGGGSGGGGSGGGGSGGGGSA
With B7, the cAMP EC50 in assay [1] was 0.013 nM; in assay [2] it was 0.86 nM; in assay [3], greater than 1360 nM; in assay [4] it was 1.3 nM; in assay [5], 2.7 nM; with rat GIP receptor (rat), 0.024 nM. Moreover, the cAMP EC50 with rat GLP-1 receptor (rat) was 0.21 nM.

B8: IP349 (Fc fusion)
chain: YSEGTFTSDYSKLLERQAIDEFIANLLKGGGGGGGSGGGGSGGGGSGGGGSGGGGSGGGGSA
With B8, the cAMP EC50 in assay [1] came out at 0.0079 nM; in assay [2], 0.16 nM; in assay [3], 1200 nM; in assay [4], 0.55 nM; in assay [5], 0.86 nM; with rat GIP receptor (rat), 0.014 nM. The cAMP EC50 with rat GLP-1 receptor (rat) was 0.059 nM.

B9: IP347 (Fc fusion)
chain: YSEGTFTSDYSKLLERQAIDEFIAILLKGGGGGGGSGGGGSGGGGSGGGGSGGGGSGGGGSA
As to B9, the cAMP EC50 in assay [1] was 0.013 nM; in assay [2], 0.75 nM; in assay [3], greater than 1490 nM; in assay [4], 0.85 nM; in assay [5], 2.5 nM; with rat GIP receptor (rat) it was 0.024 nM. The cAMP EC50 with rat GLP-1 receptor (rat) is 0.087 nM.

B10: IP331 (Fc fusion)
chain: YSEGTFTSDYSKLLERQAIDEFIADLLKGGGGGGGSGGGGSGGGGSGGGGSGGGGSGGGGSA
Take B10: the cAMP EC50 in assay [1] is 0.013 nM; in assay [2], 2.6 nM; in assay [3] it was greater than 1950 nM; in assay [4] it was 4 nM; in assay [5], 22 nM; with rat GIP receptor (rat), 0.06 nM. The cAMP EC50 with rat GLP-1 receptor (rat) is 0.31 nM.

B11: IP343 (Fc fusion)
chain: YSEGTFTSDYAAAAERQAIDAFAAWLAAAAGGGGGSGGGGSGGGGSGGGGSA
Consider B11, for which the cAMP EC50 is 72 nM in assay [1]; 960 nM in assay [2]; greater than 2070 nM in assay [3]; 880 nM in assay [4]; greater than 2070 nM in assay [5]; 110 nM with rat GIP receptor (rat). In the assay with rat GLP-1 receptor (rat), this molecule gave a cAMP EC50 of 360 nM.

B12: IP413 (Fc fusion)
chain: YSEGTFTSDYSKLLEEEASRLFIEWLLAGGGGGGSGGGGSGGGGSGGGGSATHTCPPC
On to B12, for which the cAMP EC50 in assay [2] was 0.19 nM; in assay [3], 7.6 nM; in assay [4], 3.7 nM; in assay [5], 8.9 nM; with rat GIP receptor (rat), greater than 113 nM; with rat GLP-1 receptor (rat), 0.048 nM.

B13: IP226 (Fc fusion)
chain: YSEGTFTSDVSKLLERQAIDEFIAWLLKGGAAAGGSGSTASSGSGSATGGGGAATHTCPPCPAPEF
For the molecule B13, the cAMP EC50 in assay [1] amounted to 0.025 nM; in assay [2] it was 0.2 nM; in assay [4] it was 7.5 nM; in assay [5], 1 nM; with rat GIP receptor (rat), 0.27 nM; in the assay with rat GLP-1 receptor (rat), 0.061 nM.

B14: IP223 (Fc fusion)
chain: YSEGTFTSDVSSYMEEEAIDEFIAWLLKGGAAAGGSGSTASSGSGSATGGGGAATHTCPPCPAPEF
Consider B14, for which the cAMP EC50 in assay [1] turned out to be 2.5 nM; in assay [2], 16 nM; in assay [5] it was 80 nM; in the assay with rat GIP receptor (rat), 72 nM; in the assay with rat GLP-1 receptor (rat) it was 18 nM.

B15: IP250 (Fc fusion)
chain: YSEGTFTSDVSIAMDRQAIDEFIAWLLKGGAAAGGSGSTASSGSGSATGGGGAATHTCPPCPAPEF
Take B15: the cAMP EC50 is 0.11 nM in assay [1]; 1.1 nM in assay [2]; 35 nM in assay [4]; 22 nM in assay [5]; 5.3 nM with rat GIP receptor (rat); 2.2 nM in the assay with rat GLP-1 receptor (rat).

B16: IP018 (Fc fusion)
chain: YSEGTFISDYSIAMDKIHQQDFVNWLLAQKAAAGGSGSTASSGSGSATGGGGAATHTCPPCPAPEF
For the molecule B16, in assay [1], the cAMP EC50, Batch 1 turned out to be 0.0026 nM; the cAMP EC50, Batch 2 was 0.0051 nM and 0.0093 nM; the cAMP EC50, Batch 3 was found to be 0.0064 nM; the cAMP EC50, hGIPr (C3) line was determined as 0.8 nM. In assay [2], this molecule registered a cAMP EC50 greater than 317 nM; a cAMP EC50, Batch 2 of 4200 nM; a cAMP EC50, Batch 3 greater than 6350 nM. In assay [3], the cAMP EC50 was greater than 317 nM; the cAMP EC50, Batch 2 amounted to 480 nM; the cAMP EC50, Batch 3 turned out to be 720 nM. This molecule also gave a cAMP EC50, Batch 1 in assay [4] of 0.022 nM. Besides, in the assay with rat GIP receptor (rat), the cAMP EC50, Batch 1 came to 0.0076 nM.
